This is an account of results in US10772928B2, “Modulation and detection of a neuronal alternative splicing regulatory network for treatment and diagnosis of neurological disorders” (The Governing Council of the University of Toronto, priority 2014, dated 2020).

In the experiment the target is T1, nSR100 (Mus musculus, UniProt Q8BKA3).
T1 construct: host or cells: mouse N2A cells
T1 sequence (Q8BKA3 1-608): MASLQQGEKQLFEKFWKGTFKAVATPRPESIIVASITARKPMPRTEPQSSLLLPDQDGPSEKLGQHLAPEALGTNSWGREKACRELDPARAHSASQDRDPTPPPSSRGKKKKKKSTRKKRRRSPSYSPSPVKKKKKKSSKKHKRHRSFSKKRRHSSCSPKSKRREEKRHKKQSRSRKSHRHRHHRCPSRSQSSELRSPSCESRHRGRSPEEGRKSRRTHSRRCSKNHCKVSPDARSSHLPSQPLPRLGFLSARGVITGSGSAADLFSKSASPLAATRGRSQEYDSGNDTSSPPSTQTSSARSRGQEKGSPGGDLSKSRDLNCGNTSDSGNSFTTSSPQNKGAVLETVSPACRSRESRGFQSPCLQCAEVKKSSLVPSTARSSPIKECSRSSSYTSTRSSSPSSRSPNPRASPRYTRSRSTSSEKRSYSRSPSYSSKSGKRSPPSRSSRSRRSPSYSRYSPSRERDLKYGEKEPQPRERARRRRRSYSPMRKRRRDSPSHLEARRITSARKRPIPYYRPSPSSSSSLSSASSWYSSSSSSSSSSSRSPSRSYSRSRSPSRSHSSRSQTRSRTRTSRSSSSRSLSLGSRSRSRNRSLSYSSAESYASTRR
The experiment is described as follows: AP-MS nSR100 interaction partners from mouse N2A cells (Table 5). The class given is binding. As to conditions: for AvgP (average of the SAINT scores) / MaxP (maximal SAINT score): bait Srrm4; for FoldChange between the prey Avg spectra of the bait and control purifications: bait Srrm4, 0.1 added to prevent division by 0; for AvgSpec (average number of spectra per replicate): bait Srrm4, 2 replicates; for Spectra (number of spectra for the prey in the purification of the bait): AP-MS; for SpecSum: bait Srrm4, sum of spectra over 2 replicates.

The mark [1] stands for this setting: bait Srrm4, biological replicate 1 (first number of the cell).
Setting [2] is: bait Srrm4, biological replicate 2 (second number of the cell).

Excerpt: By applying affinity purification coupled to mass-spectrometry (AP-MS), several interaction nSR100 partner proteins were detected that provide insight into mechanisms of post-translational regulation of nSR100 levels.

B1: Rnps1 (protein, UniProt Q99M28 1-305, looked up)
RNA-binding protein with …: MDLSGVKKKSLLGVKENNKKSSTRAPSPTKRKDRSDEKSKDRSKDKGATKESSEKDRGRDKTRKRRSASSGSSSTRSRSSSTSSSGSSTSTGSSSGSSSSSASSRSGSSSTSRSSSSSSSSGSPSPSRRRHDNRRRSRSKSKPPKRDEKERKRRSPSPKPTKVHIGRLTRNVTKDHIMEIFSTYGKIKMIDMPVERMHPHLSKGYAYVEFENPDEAEKALKHMDGGQIDGQEITATAVLAPWPRPPPRRFSPPRRMLPPPPMWRRSPPRMRRRSRSPRRRSPVRRRSRSPGRRRHRSRSSSNSSR
Turning to B1, the “AvgP (average of the SAINT scores)” value stood at 1; the “MaxP (maximal SAINT score)” value came out at 1; the “FoldChange between the prey Avg spectra of the bait and control purifications” value (from here on “FoldChange between the prey Avg spectra”) is reported as 17; the “AvgSpec (average number of spectra per replicate)” value is on record as 25.5. The SpecSum is reported as 51. Besides, the “Spectra (number of spectra for the prey in the purification of the bait)” value under setting [1] was determined as 26. Moreover, the “Spectra (number of spectra for the prey in the purification of the bait)” value under setting [2] is given as 25.

B2: Sf3b1 (protein, UniProt Q99NB9 1-1304, looked up)
Splicing factor 3B subunit 1: MAKIAKTHEDIEAQIREIQGKKAALDEAQGVGLDSTGYYDQEIYGGSDSRFAGYVTSIAATELEDDDDDYSSSTSLLGQKKPGYHAPVALLNDIPQSTEQYDPFAEHRPPKIADREDEYKKHRRTMIISPERLDPFADGGKTPDPKMNARTYMDVMREQHLTKEEREIRQQLAEKAKAGELKVVNGAAASQPPSKRKRRWDQTADQTPGATPKKLSSWDQAETPGHTPSLRWDETPGRAKGSETPGATPGSKIWDPTPSHTPAGAATPGRGDTPGHATPGHGGATSSARKNRWDETPKTERDTPGHGSGWAETPRTDRGGDSIGETPTPGASKRKSRWDETPASQMGGSTPVLTPGKTPIGTPAMNMATPTPGHIMSMTPEQLQAWRWEREIDERNRPLSDEELDAMFPEGYKVLPPPAGYVPIRTPARKLTATPTPLGGMTGFHMQTEDRTMKSVNDQPSGNLPFLKPDDIQYFDKLLVDVDESTLSPEEQKERKIMKLLLKIKNGTPPMRKAALRQITDKAREFGAGPLFNQILPLLMSPTLEDQERHLLVKVIDRILYKLDDLVRPYVHKILVVIEPLLIDEDYYARVEGREIISNLAKAAGLATMISTMRPDIDNMDEYVRNTTARAFAVVASALGIPSLLPFLKAVCKSKKSWQARHTGIKIVQQIAILMGCAILPHLRSLVEIIEHGLVDEQQKVRTISALAIAALAEAATPYGIESFDSVLKPLWKGIRQHRGKGLAAFLKAIGYLIPLMDAEYANYYTREVMLILIREFQSPDEEMKKIVLKVVKQCCGTDGVEANYIKTEILPPFFKHFWQHRMALDRRNYRQLVDTTVELANKVGAAEIISRIVDDLKDEAEQYRKMVMETIEKIMGNLGAADIDHKLEEQLIDGILYAFQEQTTEDSVMLNGFGTVVNALGKRVKPYLPQICGTVLWRLNNKSAKVRQQAADLISRTAVVMKTCQEEKLMGHLGVVLYEYLGEEYPEVLGSILGALKAIVNVIGMHKMTPPIKDLLPRLTPILKNRHEKVQENCIDLVGRIADRGAEYVSAREWMRICFELLELLKAHKKAIRRATVNTFGYIAKAIGPHDVLATLLNNLKVQERQNRVCTTVAIAIVAETCSPFTVLPALMNEYRVPELNVQNGVLKSLSFLFEYIGEMGKDYIYAVTPLLEDALMDRDLVHRQTASAVVQHMSLGVYGFGCEDSLNHLLNYVWPNVFETSPHVIQAVMGALEGLRVAIGPCRMLQYCLQGLFHPARKVRDVYWKIYNSIYIGSQDALIAHYPRIYNDDKNTYIRYDLDYIL
Consider B2, for which the “AvgP (average of the SAINT scores)” value was 1; the “MaxP (maximal SAINT score)” value is 1; the “FoldChange between the prey Avg spectra” value is 3.45; the “AvgSpec (average number of spectra per replicate)” value stood at 112. Further, the SpecSum was determined as 224. For the same molecule, the “Spectra (number of spectra for the prey in the purification of the bait)” value under setting [1] was determined as 92. The “Spectra (number of spectra for the prey in the purification of the bait)” value under setting [2] came out at 132.

B3: Wdr6 (protein, UniProt Q99ME2 1-1125, looked up)
tRNA …: MDAFGDYVWPRATSELILLPVTGLECVGDRLLAGEGPDLLVYNLDLGGHLRMVKRVQNLLGHFLIHGFRVRPEPKGDLDSEAMIAVFGSKGLKVVKVSWGQSHLRELWRSGLWNMSDWIWDVRWIEGNVAVALGHNSVVLYDPVIGCMLQDVPCTDRCTLSSACLVGDTWKELTIVAGAVSNELLIWYPATALTDNKPVAPDRRVSGHVGVIFSMSYLESKGLLATASEDRSVRLWKVGDLRVPGGRVQNIGHCFGHSARVWQVKLLENYLISAGEDCVCLVWSHEGEILQAFRGHRGRGIRAIATHERQAWVVTGGDDSGIRLWHLAGRGYPGLGVSSLSFKSPSRPGALKAVTLAGSWRVLAVTDVGSLYLYDLEVKSWEQLLEDNRFRSYCLLEAAPGPEGFGLCALANGEGLVKVVPINTPTAAVEQKLFQGKVHSLSWALRGYEELLLLASGPGGVIACLEISAAPTGKAIFVKERCRYLLPPSKQRWHTCSAFLPPGDFLVCGDRRGSVMLFPVRPCLFKKPGAGSKAITAAEAPGAGSGSGGSESVPTGIGPVSTLHSLHGKQGVTSVTCHGGYLYSTGRDSSYFQLFVHGGHLQPVLRQKACRGMNWVAGLRMVPDGSMVILGFHANEFVVWSPRSHEKLHIVNCGGGHRSWAFSDTEAAMAFTYLKDGEVMLYRALGGCIRPNVILREGLHGREITCVKRVGTVTLGPEFEVPNLEHPDSLEPGSEGPGLIDIVITGSEDTTVCVLALPTTTGSAHALTSVCNHISSVRALAVWAVGTPGGPQDTRPGLTAQVVSAGGRAEIHCFSVMVTPDASTPSRLACHVMHLSSHRLDEYWDRQRNKHKMIKVDPETRYMSLAICELDNDRPGLGPGPLVAAACSDGAVRLFLLQDSGRILHLLAESFHHKRCVLKVHSFTHEAPNQRRRLILCSAATDGSLAFWDLTTAMDKGSTTLELPAHPGLPYQMGTPSMTVQAHSCGVNSLHTLPTPEGHHLVASGSEDGSLHVFTLAVKMPEPEEADGEAELVPQLCVLEEYSVPCAHAAHVTGVKILSPKLMVSASIDQRLTFWRLGQGEPTFMNSTVYHVPDVADMDCWPVSPEFGHRCALAGQGLEVYNWYD
On to B3, for which the “AvgP (average of the SAINT scores)” value was determined as 1; the “MaxP (maximal SAINT score)” value worked out at 1; the “FoldChange between the prey Avg spectra” value turned out to be 160; the “AvgSpec (average number of spectra per replicate)” value is recorded as 16. In addition, the SpecSum turned out to be 32. Further, under setting [1], the “Spectra (number of spectra for the prey in the purification of the bait)” value is listed as 13. Besides, the “Spectra (number of spectra for the prey in the purification of the bait)” value under setting [2] is 19.

B4: Prpf4b (protein, UniProt Q61136 2-1007, looked up)
Serine/threonine-protein …: AATEPPSLREQAEMDDADNSEKSVNEENGEVSEDQSQNKHSRHKKKKHKHRSKHKKHKHSSEEDRDKKHKHKHKHKKHKRKEVIEASDKEGLSPAKRTKLDDLALLEDLEKQRALIKAELDNELMEGKVQSGMGLILQGYESGSEEEGEIHEKARNGNRSSTRSSSTRGKLEITDNKNSAKKRSKSRSKERTRHRSDKRKSKGAGEMLREKANRSKSKERRKSKSPSKRSKSQDQARKSKSPPLRRRSQEKVGKARSPAEEKMKSEEKGKIKDRKKSPIVNERSRDRSKKSKSPVDLRDKSKDRRSRSKERKSKRSEIDKEKKPIKSPSKDASSGKENRSPSRRPGRSPKRRSLSPKLRDKSRRSRSPLLNDRRSKQSKSPSRTLSPGRRAKSRSLERKRREPERRRLSSPRTRPRDDILGRCERSKDASPINRWSPTRRRSRSPIRRRSRSPLRRSRSPRRRSRSPRRRDRSRRSRSRLRRRSRSRGGHRRRSRSKVKEDKFKGSLSEGMKVEQESSSDDNLEDFDVEEEDEEALIEQRRIQRQAIVQKYKYLAEDSNISVPSEPSSPQSSTRSRSPSPDDILERVAADVKEYERENVDTFEASVKAKHNLMTVEQNNGSSQKKILAPDMFTESDDMFAAYFDSARLRAAGIGKDFKENPNLRDNWTDAEGYYRVNIGEVLDKRYNVYGYTGQGVFSNVVRARDNARANQEVAVKIIRNNELMQKTGLKELEFLKKLNDADPDDKFHCLRLFRHFYHKQHLCLVFEPLSMNLREVLKKYGKDVGLHIKAVRSYSQQLFLALKLLKRCNILHADIKPDNILVNESKTILKLCDFGSASHVADNDITPYLVSRFYRAPEIIIGKSYDYGIDMWSVGCTLYELYTGKILFPGKTNNHMLKLAMDLKGKMPNKMIRKGVFKDQHFDQNLNFMYIEVDKVTEREKVTVMSTINPTKDLLADLIGCQRLPEDQRKKVHQLKDLLDQILMLDPAKRISINQALQHAFIQEKI
As to B4, the “AvgP (average of the SAINT scores)” value came out at 1; the “MaxP (maximal SAINT score)” value was 1; the “FoldChange between the prey Avg spectra” value stood at 45; the “AvgSpec (average number of spectra per replicate)” value is reported as 4.5. The molecule further came in with a SpecSum of 9. For the same molecule, the “Spectra (number of spectra for the prey in the purification of the bait)” value under setting [1] worked out at 4. Moreover, under setting [2], the “Spectra (number of spectra for the prey in the purification of the bait)” value turned out to be 5.

B5: Plk1 (protein, UniProt Q07832 1-603, looked up)
Serine/threonine-protein …: MNAAAKAGKLARAPADLGKGGVPGDAVPGAPVAAPLAKEIPEVLVDPRSRRQYVRGRFLGKGGFAKCFEISDADTKEVFAGKIVPKSLLLKPHQKEKMSMEISIHRSLAHQHVVGFHDFFEDSDFVFVVLELCRRRSLLELHKRRKALTEPEARYYLRQIVLGCQYLHRNQVIHRDLKLGNLFLNEDLEVKIGDFGLATKVEYEGERKKTLCGTPNYIAPEVLSKKGHSFEVDVWSIGCIMYTLLVGKPPFETSCLKETYLRIKKNEYSIPKHINPVAASLIQKMLQTDPTARPTIHELLNDEFFTSGYIPARLPITCLTIPPRFSIAPSSLDPSSRKPLKVLNKGVENPLPDRPREKEEPVVRETNEAIECHLSDLLQQLTSVNASKPSERGLVRQEEAEDPACIPIFWVSKWVDYSDKYGLGYQLCDNSVGVLFNDSTRLILYNDGDSLQYIERDGTESYLTVSSHPNSLMKKITLLNYFRNYMSEHLLKAGANITPREGDELARLPYLRTWFRTRSAIILHLSNGTVQINFFQDHTKLILCPLMAAVTYINEKRDFQTYRLSLLEEYGCCKELASRLRYARTMVDKLLSSRSASNRLKAS
As to B5, the “AvgP (average of the SAINT scores)” value is listed as 1; the “MaxP (maximal SAINT score)” value came to 1; the “FoldChange between the prey Avg spectra” value turned out to be 430; the “AvgSpec (average number of spectra per replicate)” value is recorded as 43. The SpecSum is 86. Also, the “Spectra (number of spectra for the prey in the purification of the bait)” value under setting [1] is given as 43|43. In addition, the “Spectra (number of spectra for the prey in the purification of the bait)” value under setting [2] was 43|43.
